Tests used:
[1] = target: T1, non-phosphorylated C-terminal TDP-43 peptide NAGSGSGFNGGFGSSMDSKSSGWGM (human, N-terminally biotinylated); assay: ELISA, biotinylated peptide on streptavidin plate, IgG1 format, anti-human IgG1 HRP
T1 construct: Synthetic biotinylated peptide captured on streptavidin plates; also called non-phosphorylated TDP-43
T1 peptide: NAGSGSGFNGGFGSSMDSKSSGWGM
Experimental: (§1) The ability of clones to bind phosphorylated TDP-43 and/or non-phosphorylated TDP-43 was assessed using N-terminally biotinylated TDP-43 peptides having the following sequences: […] (SEQ ID NO: 218; non-phosphorylated); […] {PSER} SGWGM (SEQ ID NO: 219; phosphorylated S409); […] {PSER} GWGM (SEQ ID NO: 220; phosphorylated S410); and […] {PSER} {PSER} GWGM (SEQ ID NO: 221; phosphorylated S409/S410). Peptides were dissolved in 100% DMSO, aliquoted, and stored in −80° C. before use. Wells were incubated with 100 μL (5 μg/mL) of the peptides on streptavidin plates overnight at 4° C. The plates were then washed 3× in PBST wash buffer. Antibody clones B, C, G, I, O, S, U, and X, and non-binding controls (VRC07 for full-length IgG, and anti-methamphetamine clone 6H4 as control for the scFv experiments) were made in full-length human IgG₁ and scFv formats (IpA), and dilutions were prepared in blocking buffer (2% BSA). 100 μL/well of the dilutions were added to coated plates and the plates were incubated at RT for 1 hour. The plates were subsequently washed 3× with 250 μL/well wash buffer. 100 μL/well of primary antibody CEN63-C13 Rb-a-G4S (IpA) diluted in blocking buffer (2 μg/ml) was added and the plates were incubated for 1 hour at RT followed by 3× washing in PBST. For detection, 100 μL/well secondary antibodies (goat anti human IgG₁ HRP (Jackson ImmunoResearch) or goat anti-rabbit HRP for scFv (Promega)) diluted in blocking buffer (1:5000) was added to the wells and the plates were incubated for 1 hour at RT. The plates were subsequently washed 3× and 100 μL/well of TMB ready solution was added to the wells, followed by 3-4 minutes incubation in the dark. The reaction was stopped with 1M H₂SO₄ added to the wells (100 μL/well), and absorption measured on a GloMax plate reader (Promega) at […].

[2] = target: T1, non-phosphorylated C-terminal TDP-43 …; assay: ELISA, biotinylated peptide on streptavidin plate, scFv format, rabbit anti-G4S and anti-rabbit HRP
Experimental: as §1

[3] = target: T1, non-phosphorylated C-terminal TDP-43 …; assay: ELISA, biotinylated peptide on streptavidin plate, scFv format, rabbit anti-G4S and anti-rabbit HRP; profile referred to: less efficient at binding non-phosphorylated TDP-43
Experimental: as §1, with “100 μL/well of primary antibody CEN63-C13 Rb-a-G4S (IpA) diluted in blocking buffer (2 μg/ml) was added and the plates were incubated for 1 hour at RT followed by 3× washing in PBST. For detection, 100 μL/well secondary antibodies (goat anti human IgG₁ HRP (Jackson ImmunoResearch) or goat anti-rabbit HRP for scFv (Promega)) diluted in blocking buffer (1:5000) was added to the wells and the plates were incubated for 1 hour at RT.” left out

B1: anti-TDP43 clone O, full-length human IgG1 format (antibody, V domains shown)
VH: QVQLVQSGAEVKKPGASVKVSCKASGYTFTKYWMHWVRQAPGQGLEWMGEINPKNGRTNYNQKFQGRVTMTRDTSTSTVYMELSSLRSEDTAVYYCWRYMDYWGQGTLVTVSS
VL: DIVMTQSPLSLPVTPGEPASISCRSSQSLLHSNGYNYLDWYLQKPGQSPQLLIYKVSNRFSGVPDRFSGSGSGTDFTLKISRVEAEDVGVYYCLQHTHWPPTFGGGTKVEIK
notes: Tested as full-length human IgG1
B1: binds [1].

B2: anti-TDP43 clone X, full-length human IgG1 format (antibody, V domains shown)
VH: QVQLVQSGAEVKKPGASVKVSCKASGYTFTSHYLHWVRQAPGQGLEWMGIINPSNGRTNYNQKFQGRVTMTRDTSTSTVYMELSSLRSEDTAVYYCWRYMDYWGQGTLVTVSS
VL: DIVMTQSPLSLPVTPGEPASISCRSSQSLLHSNGYNYLDWYLQKPGQSPQLLIYEVSNRFSGVPDRFSGSGSGTDFTLKISRVEAEDVGVYYCLQHTHWPPTFGGGTKVEIK
notes: as for B1
B2: binds [1].

B3: anti-TDP43 clone C, scFv format (scFv)
scFv: QVQLVQSGAEVKKPGASVKVSCKASGFTFTEYSMHWVRQAPGQGLEWMGGINPNNGGTSYNQKFQGRVTMTRDTSTSTVYMELSSLRSEDTAVYYCARESWGQGTLVTVSSGGGGSGGGGSGGGGSDIVMTQSPLSLPVTPGEPASISCKSSQSLLHSDGKTYLNWYLQKPGQSPQLLIYLGSNRASGVPDRFSGSGSGTDFTLKISRVEAEDVGVYYCFQGTHFPHTFGGGTKVEIK
B3: binds [2].

B4: anti-TDP43 clone G, scFv format (scFv)
scFv: QVQLVQSGAEVKKPGASVKVSCKASGFTFTEYSMHWVRQAPGQGLEWMGGINPNNGGTSYNQKFQGRVTMTRDTSTSTVYMELSSLRSEDTAVYYCASESWGQGTLVTVSSGGGGSGGGGSGGGGSDIVMTQSPLSLPVTPGEPASISCKSSQSLLHSDGKTYLNWYLQKPGQSPQLLIYLVSKLKSGVPDRFSGSGSGTDFTLKISRVEAEDVGVYYCMQGTHFPHTFGGGTKVEIK
notes: also called VecTab G (as AAV5.2-encoded scFv)
B4: binds [2].

B5: anti-TDP43 clone I, scFv format (scFv)
scFv: QVQLVQSGAEVKKPGASVKVSCKASGFTFTEYSMHWVRQAPGQGLEWMGGINPNNGGTIYNQKFQGRVTMTRDTSTSTVYMELSSLRSEDTAVYYCARESWGQGTLVTVSSGGGGSGGGGSGGGGSDIVMTQSPLSLPVTPGEPASISCKSSQSLLHSDGKTYLNWYLQKPGQSPQLLIYLGSNRASGVPDRFSGSGSGTDFTLKISRVEAEDVGVYYCMQGTHFPHTFGGGTKVEIK
notes: also called VecTab I (as AAV5.2-encoded scFv)
B5: binds [2].

B6: anti-TDP43 clone B, scFv format (scFv)
scFv: QVQLVQSGAEVKKPGASVKVSCKASGFTFTELSMHWVRQAPGQGLEWMGGINPNNGGTSYNQKFQGRVTMTRDTSTSTVYMELSSLRSEDTAVYYCARESWGQGTLVTVSSGGGGSGGGGSGGGGSDIVMTQSPLSLPVTPGEPASISCKSSQSLLHSDGKTYLNWYLQKPGQSPQLLIYLASRRASGVPDRFSGSGSGTDFTLKISRVEAEDVGVYYCFQGTHFPHTFGGGTKVEIK
notes: also called VecTab B (as AAV5.2-encoded scFv)
B6: binds [2].

B7: anti-TDP43 clone C, full-length human IgG1 format (antibody, V domains shown)
VH: QVQLVQSGAEVKKPGASVKVSCKASGFTFTEYSMHWVRQAPGQGLEWMGGINPNNGGTSYNQKFQGRVTMTRDTSTSTVYMELSSLRSEDTAVYYCARESWGQGTLVTVSS
VL: DIVMTQSPLSLPVTPGEPASISCKSSQSLLHSDGKTYLNWYLQKPGQSPQLLIYLGSNRASGVPDRFSGSGSGTDFTLKISRVEAEDVGVYYCFQGTHFPHTFGGGTKVEIK
notes: as for B1
B7: binds [1].

B8: anti-TDP43 clone I, full-length human IgG1 format (antibody, V domains shown)
VH: QVQLVQSGAEVKKPGASVKVSCKASGFTFTEYSMHWVRQAPGQGLEWMGGINPNNGGTIYNQKFQGRVTMTRDTSTSTVYMELSSLRSEDTAVYYCARESWGQGTLVTVSS
VL: DIVMTQSPLSLPVTPGEPASISCKSSQSLLHSDGKTYLNWYLQKPGQSPQLLIYLGSNRASGVPDRFSGSGSGTDFTLKISRVEAEDVGVYYCMQGTHFPHTFGGGTKVEIK
notes: as for B1
B8: binds [1].

B9: anti-TDP43 clone G, full-length human IgG1 format (antibody, V domains shown)
VH: QVQLVQSGAEVKKPGASVKVSCKASGFTFTEYSMHWVRQAPGQGLEWMGGINPNNGGTSYNQKFQGRVTMTRDTSTSTVYMELSSLRSEDTAVYYCASESWGQGTLVTVSS
VL: DIVMTQSPLSLPVTPGEPASISCKSSQSLLHSDGKTYLNWYLQKPGQSPQLLIYLVSKLKSGVPDRFSGSGSGTDFTLKISRVEAEDVGVYYCMQGTHFPHTFGGGTKVEIK
notes: as for B1
B9: binds [1].

B10: anti-TDP43 clone S, scFv format (scFv)
scFv: QVQLVQSGAEVKKPGASVKVSCKASGYTFTKYWMHWVRQAPGQGLEWMGEINPSNGRTNYPQKFQGRVTMTRDTSTSTVYMELSSLRSEDTAVYYCWRYMDYWGQGTLVTVSSGGGGSGGGGSGGGGSDIVMTQSPLSLPVTPGEPASISCRSSQSLLHSNGYNYLDWYLQKPGQSPQLLIYKVSNRFTGVPDRFSGSGSGTDFTLKISRVEAEDVGVYYCMQHTHWPPAFGGGTKVEIK
notes: also called VecTab S (as AAV5.2-encoded scFv)
B10: binds [3].

B11: anti-TDP43 clone X, scFv format (scFv)
scFv: QVQLVQSGAEVKKPGASVKVSCKASGYTFTSHYLHWVRQAPGQGLEWMGIINPSNGRTNYNQKFQGRVTMTRDTSTSTVYMELSSLRSEDTAVYYCWRYMDYWGQGTLVTVSSGGGGSGGGGSGGGGSDIVMTQSPLSLPVTPGEPASISCRSSQSLLHSNGYNYLDWYLQKPGQSPQLLIYEVSNRFSGVPDRFSGSGSGTDFTLKISRVEAEDVGVYYCLQHTHWPPTFGGGTKVEIK
B11: binds [3].

— patent US20260176307A1 (VECTORY THERAPEUTICS B V, published 2026)
